Experimental data: patent publication US9512428B2, “Method of deriving mature hepatocytes from human embryonic stem cells” (Wisconsin Alumni Research Foundation, priority 2012, dated 2016)
Entries after “also recorded” stand apart in the source; their conditions may differ.

Key:
[1] = test system: CYP1A2; assay: CYP1A2 induction by omeprazole in transduced hESC-derived hepatocytes (quantitative PCR); type: in vitro ADME, human
Method: Induction of this enzyme was also measured in HepG2 human hepatocytes and in fresh primary human hepatocytes. Expression was measured by quantitative PCR, and the expression levels are shown as GAPDH normalized gene expression values (RQ values or relative quantity values. Error bars indicate RQ min and RQ max values).
(RQ values or relative quantity values. Error bars indicate RQ min and RQ max values).
Omeprazole and rifampicin (also known as rifampin; Sigma) were added to DMEM at 100 μM and 10 μM respectively for 3 days. The resulting medium was analyzed by mass spectrometry. Metabolites of the tested drugs, omeprazole sulfone (Santa Cruz Biotechnology), 5-hydroxy omeprazole (Cachesyn), and desacetyl rifampicin (Santa Cruz Biotechnology) were dissolved in DMEM to prepare standard curves.

[2] = test system: hESC derived hepatocytes; assay: Rifampin metabolism to 25-des acetyl rifampin in hESC derived hepatocytes (LC-MS/MS); details: hESC derived hepatocytes co-transduced with let-7c and mir-122, 72 hours incubation
[3] = test system: hepatitis B virus (HBV); assay: HBV infection and replication in transduced hESC-derived hepatocytes (viral genome QPCR); type: cell-based
Method: FIG. 8 is a bar graph showing that HBV infects and replicates in human embryonic stem cell-derived hepatocytes. Number of copies of the HBV genome is reported for human embryonic stem cell-derived hepatocytes transduced with mir-122 infected with HBV (es heps with miRNA), positive control (human heps), and negative controls (hepg2). The copy numbers were calculated by QPCR. QPCR standard curve was prepared by serial dilution of LJ144, a construct that contains the whole viral genome. Both LJ144 and QPCR primers were disclosed by Watanabe et al. (PNAS 2007 104 (24)).
The copy numbers were calculated by QPCR. QPCR standard curve was prepared by serial dilution of LJ144, a construct that contains the whole viral genome. Both LJ144 and QPCR primers were disclosed by Watanabe et al. (PNAS 2007 104 (24)). […]
Infected cells were lysed at 6 days post-infection and treated with micrococcal nuclease. […] QPCR was performed to quantify the viral genomes present in the isolated DNA using the QPCR primers disclosed by Watanabe et al. (PNAS 2007 104 (24)). […]
Infectious HBV virions were concentrated from media of HepAD38 cells (Ladner et al. 1997) by PEG 8000 precipitation followed by centrifugation. […] Viral genome copy numbers were quantified by QPCR using primers previously published (see Watanabe et al. 2007). […]

[4] = test system: hES cell-derived fetal hepatocytes; assay: QPCR of liver genes in hES cell-derived fetal hepatocytes after lentiviral transduction of mir-122; type: cell-based, human
Excerpt: We next determined whether forced expression of mir-122 in the hES cell-derived fetal hepatocytes could program these cells to a more mature differentiated state. We expressed mir-122 in the fetal hepatocytes by lentiviral transduction. Using this method, we achieved ˜5% transduction efficiency (see FIG. 2 GFP positive cells).
These GFP positive cells were then FACS sorted, and RNA was isolated for QPCR measurements of functional genes.
H1 hES cells (J. A. Thomson et al., Science (1998) 282: 1145-1147) cultured in E8 medium (Chen et al., 2011 Nature Methods 8(5) 424-9) were differentiated to fetal hepatocytes lacking functional hepatic enzyme activity following a previously published protocol (see J. Cai et al., Hepatology (2007) 45: 1229-1239), with some modifications. Briefly, the hES cells at approximately 50% confluency were treated with 0.5 mg/ml Albumin fraction V (Sigma) and 100 ng/ml Activin A (Sigma) for 3 days. On the second day of treatment, 0.1% Insulin-transferrin-Selenium (Sigma) was added, and on the third day of treatment, 1.0% Insulin-transferrin-Selenium (Sigma) was added. From day four to day eight, the cells were treated with 30 ng/ml FGF4 (R&D Systems) along with 20 ng/ml BMP2. From days nine through thirteen, 20 ng/ml HGF (R&D Systems) were added to the medium, and finally, the cells were treated for five days with 10 ng/ml Oncostatin M (R&D Systems) and 0.1 μM Dexamethasone (Sigma). Throughout differentiation, hepatocyte growth medium (Promocell) was used as a base medium and cells were kept on Matrigel™ coated plates. […] hepatocytes were obtained for comparison studies (Celsis).
Mir-122 was transduced into the hES derived cells having hepatocyte morphology by a lentiviral vector pEZX-MR01 (Genecoepoeia). Approximately ˜5% of cells were transduced, as measured by GFP expression.
In this example, we performed a QRT PCR comparison of the gene expression levels of the mature hepatocytes produced from human embryonic stem cells according to the procedure outlined in Example 1 (ES hepatocyte expressing mir-122), the expression levels for the same proteins in human primary hepatocytes (Human hepatocyte), the expression levels for the same proteins in the fetal hepatocytes before transduction (ES hepatocyte), and the expression levels for the same proteins in HepG2 cells.

[5] = test system: primary human hepatocytes; assay: Functional gene expression over time in primary human hepatocytes transduced with mir-122 (QPCR); type: cell-based
Method: FIGS. 6A through 6E are a bar graphs showing that lentivirus mediated DNA transfer to primary hepatocytes derived directly from liver tissue results in improved hepatic protein expression over time, as compared to control primary hepatocytes. Expression is shown for albumin (FIG. 6A), tyrosine aminotransferase (TAT) (FIG. 6B), and the CYP 450 enzymes CYP1A2 (FIG. 6C), CYP3A4 (FIG. 6D) and CYP7A1 (FIG. 6E). Expression was measured by quantitative PCR, and the reported values were normalized by GAPDH expression (RQ or relative quantity values, error bars representing standard error, RQ min and RQ max). Expression values are shown for each gene at the time the culture was established (0 day) and 9, 13 or 19 days later.
We cultured primary human hepatocytes (both control hepatocytes and hepatocytes into which vectors were transferred to express mir-122). Mir-122 was transduced into these primary hepatocytes using the lentiviral vector PEZX-MR01. GFP expressing cells were FACS sorted before RNA isolation and gene expression measurements using QPCR.

[6] = test system: hESC derived hepatocytes; assay: QPCR of liver genes in hESC derived hepatocytes transduced with let-7c alone or with mir-122; type: cell-based, human; details: GAPDH normalized, versus non-transduced hESC derived hepatocytes
Method: Expression of albumin was also measured in HepG2, a human hepatoma cell line (hepg2). Expression was measured by quantitative PCR. Indicated expression levels (on the Y axis) are GAPDH normalized gene expression values called RQ values (relative quantity values), with HepG2 expression assigned a relative value of 1. Error bars indicate RQ min and RQ max values calculated on 1 standard deviation. All RQ, RQ min and RQ max values were calculated with ViiA7 software on Applied Biosystems QPCR system.
Expression of CYP7A1 was also measured in HepG2, a human hepatoma cell line (hepg2). Expression was measured by quantitative PCR. Indicated expression levels (on the Y axis) are GAPDH normalized gene expression values called RQ values (relative quantity values), with HepG2 expression assigned a relative value of 1. Error bars indicate RQ min and RQ max values calculated on 1 standard deviation. All RQ, RQ min and RQ max values were calculated with ViiA7 software on Applied Biosystems QPCR system.
Expression of CYP3A4 was also measured in HepG2, a human hepatoma cell line (hepg2). Expression was measured by quantitative PCR. Indicated expression levels (on the Y axis) are GAPDH normalized gene expression values called RQ values (relative quantity values), with HepG2 expression assigned a relative value of 1. Error bars indicate RQ min and RQ max values calculated on 1 standard deviation. All RQ, RQ min and RQ max values were calculated with ViiA7 software on Applied Biosystems QPCR system.
Expression of AFP was also measured in HepG2, a human hepatoma cell line (hepg2). Expression was measured by quantitative PCR. Indicated expression levels (on the Y axis) are GAPDH normalized gene expression values called RQ values (relative quantity values), with HepG2 expression assigned a relative value of 1. Error bars indicate RQ min and RQ max values calculated on 1 standard deviation. All RQ, RQ min and RQ max values were calculated with ViiA7 software on Applied Biosystems QPCR system.
Expression of AFP was also measured in HepG2, a human hepatoma cell line (hepg2). Expression was measured by quantitative PCR.

Question: COc1ccc2[nH]c([S+]([O-])Cc3ncc(C)c(OC)c3C)nc2c1 (centres unmarked) [omeprazole] was tested. Which “induction of CYP1A2 upon drug challenge” value ([1]; hESC-derived hepatocytes transduced with both mir-122 and let-7c, versus non-drug treated (ND) cells) did it give?
Answer: strongly induced; also recorded: induced the expression

Question: What about the “induction of CYP1A2 upon drug challenge” value ([1]; hESC-derived hepatocytes with let-7c alone, no concurrent mir-122) of the same molecule?
Answer: did not elicit induction

Question: And the “expression of CYP1A2 upon addition of drug” value ([1]; mir-122 transduced hES cell-derived hepatocytes, 100 μM for 3 days)?
Answer: substantially up-regulated

Question: Which “efficiency of metabolism to 25-des acetyl rifampin” value [2] does the source give for CO[C@H]1/C=C/O[C@@]2(C)Oc3c(C)c(O)c4c(O)c(c(/C=N/N5CCN(C)CC5)c(O)c4c3C2=O)NC(=O)/C(C)=C\C=C\[C@H](C)[C@H](O)[C@@H](C)[C@@H](O)[C@@H](C)[C@H](OC(C)=O)[C@@H]1C [rifampicin] here?
Answer: comparable to primary human hepatocytes

B1: mir-122: human microRNA mir-122 (pre-miRNA SEQ ID NO:1, mature SEQ ID NO:2); coding DNA transferred by lentiviral vector (nucleic acid, listed as Homo sapiens)
chain 1: CCUUAGCAGAGCUGUGGAGUGUGACAAUGGUGUUUGUGUCUAAACUAUCAAACGCCAUUAUCACACUAAAUAGCUACUGCUAGGC
chain 2: UGGAGUGUGACAAUGGUGUUUG
Question: For B1, which “HBV genomes present per well” value ([3]; mir-122 transduced hESC-derived hepatocytes, 6 days post-infection) is on record?
Answer: presence of HBV genomes

Question: And the “expression of functional genes (quantitative PCR)” value ([4]; GFP positive FACS sorted hES cell-derived hepatocytes expressing miR-122)?
Answer: significant up-regulation

Question: And the “expression of functional genes (alb, tat, CYP1A2, CYP7A1, CYP3A4, aat) compared with primary hepatocytes” value ([4]; QRT PCR, transduced mature hepatocytes versus human primary hepatocytes)?
Answer: equal or greater expression than in primary hepatocytes

Question: What about the transduction efficiency ([4]; lentiviral transduction, GFP positive cells) of the same molecule?
Answer: ~5%

Question: What about the alpha-feto protein expression ([4]; mir-122 expressing hESC-derived hepatocytes) of the same molecule?
Answer: not down-regulated

Question: And the “CYP gene expression compared with fresh hepatocytes (day 0)” value ([5]; mir-122 expressing primary hepatocytes in culture)?
Answer: equal or greater amount

Question: What about the “mRNA levels of functional genes that decreased in control culture” value ([5]; primary hepatocytes cultured 9 days or more, overexpressing mir-122) of the same molecule?
Answer: regained their expression

B2: let-7c: human microRNA let-7c (pre-miRNA SEQ ID NO:3, mature SEQ ID NO:4); coding DNA transferred by lentiviral vector pEZX-MR03 (nucleic acid, listed as Homo sapiens)
chain 1: GCAUCCGGGUUGAGGUAGUAGGUUGUAUGGUUUAGAGUUACACCCUGGGAGUUAACUGUACAACCUUCUAGCUUUCCUUGGAGC
chain 2: UGAGGUAGUAGGUUGUAUGGUU
Question: What does the source list for B2?
Answer: productive infection by HBV (relative number of copies of the HBV genome) ([3]; transduced versus non-transduced hESC-derived hepatocytes, seventh day after infection): significantly down-regulated; AFP (alpha-feto protein) expression [6]: down-regulated; CYP1A2 expression [6]: up-regulated; CYP3A4 expression [6]: up-regulated; CYP7A1 expression [6]: up-regulated; albumin expression [6]: up-regulated
